Patent US20240026017A1 (Kyowa Kirin, published 2024)

T1: human CCR3 (human, UniProt P51677 1-355)
T1 construct: whole, on cells; also called hCCR3; CHO-S-hCCR3 (expressing cells)
T1 sequence (looked up): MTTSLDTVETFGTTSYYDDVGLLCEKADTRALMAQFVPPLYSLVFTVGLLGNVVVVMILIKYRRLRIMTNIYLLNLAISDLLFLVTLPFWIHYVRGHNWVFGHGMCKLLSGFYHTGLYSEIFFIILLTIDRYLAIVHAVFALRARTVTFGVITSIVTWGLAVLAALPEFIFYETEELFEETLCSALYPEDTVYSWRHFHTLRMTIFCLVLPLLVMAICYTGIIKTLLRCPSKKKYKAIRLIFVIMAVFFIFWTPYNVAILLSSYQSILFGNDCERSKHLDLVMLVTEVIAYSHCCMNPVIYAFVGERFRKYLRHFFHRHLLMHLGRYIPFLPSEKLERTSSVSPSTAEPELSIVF

T2: human CC chemokine receptor 1 (human CCR1) (human, UniProt P32246 1-355)
T2 construct: endogenous on THP-1 cells in the migration assays; also called hCCR1; CHO-S-hCCR1 (expressing cells)
T2 sequence: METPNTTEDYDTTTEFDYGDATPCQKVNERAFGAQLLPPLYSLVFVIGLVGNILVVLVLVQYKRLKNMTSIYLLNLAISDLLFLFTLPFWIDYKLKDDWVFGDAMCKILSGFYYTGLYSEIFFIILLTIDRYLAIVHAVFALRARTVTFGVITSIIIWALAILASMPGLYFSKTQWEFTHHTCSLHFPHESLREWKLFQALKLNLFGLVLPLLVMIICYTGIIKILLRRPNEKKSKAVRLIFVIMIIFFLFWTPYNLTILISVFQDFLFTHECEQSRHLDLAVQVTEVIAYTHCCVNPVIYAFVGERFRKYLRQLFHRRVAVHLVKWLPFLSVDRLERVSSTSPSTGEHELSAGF


Columns and labels:
[1] = target: T1, human CCR3; assay: flow cytometry on CHO-S-hCCR3 cells, hybridoma culture supernatant diluted 10-fold
Text: As test antibodies, each hybridoma culture supernatant diluted 10-fold, an existing mouse anti-human CCR1 monoclonal antibody 53504 antibody (R & D Technologies), and a mouse anti-human CCR3 monoclonal antibody 444-11 antibody (MBL) were used.
Regarding the measurement results, the fluorescence intensity when a certain cell was stained with a certain test antibody (each hybridoma culture supernatant, 53504 antibody or 444-11 antibody) and a secondary antibody was divided by the fluorescence intensity when the cell was stained only with the secondary antibody. […] In Table 2, the results are indicated as A and B, respectively.

[2] = target: T2, human CC chemokine receptor 1 (human …); assay: flow cytometry on CHO-S-hCCR1 cells; bound = fluorescence 10 times or more that of isotype control chDNP1
Experimental: The antigen affinity of the chKM5908′ antibody, which is a VL-substituted chimeric antibody, was measured by flow cytometry using the CHO-S-hCCR1 cells produced in Example 2. The cells were collected by centrifugation, the supernatant was removed, and the cells were suspended in PBS (Staining Medium, hereinafter, abbreviated as SM) containing 2% fetal bovine serum (FBS), 0.05% NaN₃, and 1 mM EDTA. Next, the cells were seeded in a 96-well plate so that the number of cells is 1×10⁵ per well, and the chKM5908′ antibody was added at each final concentration of 10,000, 2,000, 400, 80, 16, and 3.2 ng/mL, and the reaction was performed at 4° C. for 60 minutes. After washing the cells with SM, Goat F (ab′)₂ Anti-Human IgG PE (γ chain specific) (Southern Biotech) diluted 500-fold with SM was added and reacted at 4° C. for 60 minutes. After washing the cells with SM, the cells were resuspended in 50 μL of SM, and the fluorescence intensity was measured by the flow cytometry (FACS Canto II, BD Biosciences).
1996 June; 33 (9):759-68, hereinafter, referred to as chDNP1)] were determined to be bound to the human CCR1.

| fluorescence intensity ratio (test antibody + secondary / secondary only) [1] [fold] | binding result [2] | Binder |
| --- | --- | --- |
| – | binds | chKM5908′ mut30 (antibody, V domains shown) VH: QVQLKQSGPGLVQPSQSLSITCTVSGFSLNNYGVHWVRQPPGKGLEWLGVIWSAGTTVYNAAAISRLSISKDDSKSQVFFKMNSLQAGDTAIYYCAKDGSRYYTAMDYWGQGTSVTVSS VL: DVVMTQTPLSLPVSLGDQASIFCRSSQSLVHRNGITFAHWYLQKPGQSPKLLIYKISNRFSGVPDRFSGSGSGTDFTLKISRVAPDDLGVYFCSQGTHVPPTFGGGTKLEIK |
| – | binds | chKM5908′ mut32 (antibody, V domains shown) VH: QVQLKQSGPGLVQPSQSLSITCTVSGFSLNNYGVHWVRQPPGKGLEWLGVTWSAGTTVYNAAFASRLSISKDDSKSQVFFKMNSLQAGDTAIYYCAKDGSRAYAAMDYWGQGTSVTVSS VL: DVVMTQTPLSLPVSLGDQASIFCRSSQSLVHRNGITFAHWYLQKPGQSPKLLIYKISNRFSGVPDRFSGSGSGTDFTLKISRVAPDDLGVYFCSQGTHVPPTFGGGTKLEIK |
| – | binds | chKM5908′ mut27 (antibody, V domains shown) VH: QVQLKQSGPGLVQPSQSLSITCTVSGFSLNNYGVHWVRQPPGKGLEWLGVTWSAGTTAYNAAFASRLSISKDDSKSQVFFKMNSLQAGDTAIYYCAKDGSRYYTAMDYWGQGTSVTVSS VL: DVVMTQTPLSLPVSLGDQASIFCRSSQSLVHRNGITFFHWYLQKPGQSPKLLIYKVSNKFSGVPDRFSGSGSGTDFTLKISRVAPDDLGVYFCSQGTHVPPTFGGGTKLEIK |
| – | binds | chKM5908′ mut31 (antibody, V domains shown) VH: QVQLKQSGPGLVQPSQSLSITCTVSGFSLNNYGVHWVRQPPGKGLEWLGVTWSAGTTAYNAAFASRLSISKDDSKSQVFFKMNSLQAGDTAIYYCAKDGSRYYTAMDYWGQGTSVTVSS VL: DVVMTQTPLSLPVSLGDQASIFCRSSQSLVHRNGITFAHWYLQKPGQSPKLLIYKISNRFSGVPDRFSGSGSGTDFTLKISRVAPDDLGVYFCSQGTHVPPTFGGGTKLEIK |
| < 10 | – | KM5916 antibody (antibody, mouse IgG2b, V domains shown, mouse IgG2b from hybridoma) VH: DVKLVESGEGLVKPGGSLKLSCAASGFTFSRNAMSWVRQTPEKRLEWVAYISSGSDYIYYADTVKGRFTVSRDNARNTLYLQMTSLRSEDTAMYFCTRFSYGYGKNAPDYWGQGTSVTVSS VL: DIQMTQSPSSLSASLGGKVTITCKASQDINKYIAWYQHKPGQGPRLLIHYTSSLQPGIPSRFSGSGSGRDYSFSISNLEPEDIATYYCLQYDYTMTFGGGTKLEIR |
| < 10 | – | KM5956 antibody (antibody, mouse IgG2a, V domains shown, mouse IgG2a from hybridoma) VH: QVQLKESGPGLVAPSQSLSITCTVSGFSLARYTITWVRQPPGKGLEWLGLIRTGGGTIYNSALKSRLSISKDNSKSQVFLKMNSLQSGDTARYYCARNGAYYSNSGSYWYFDVWGTGTTVTVSS VL: QIVLTQSPAIMSASLGEEITLTCSASSSVTYMHWYQQKSGTSPKLLIYSTSNLASGVPSRFSGSGSGTFYSLTISSVEAEDAADYYCHQWSSHPCTFGGGAKLEIK |
| < 10 | – | KM5907 antibody (antibody, mouse IgG1, V domains shown, mouse IgG1 from hybridoma) VH: EVQVVESGGNLVKPGGSLKLSCSASGFTFSRYGMSWVRQTPDKRLEWVASISATFTYTYYTDNVKGRFTISRDNAKNTLYLQMSSLRSEDTGMYYCTRQDNYAWFDSWGQGTLVTVSA VL: DVLMTQTPLSLPVSLGDQVSISCRSSQSIVHSNGNTFLEWYLKKPGQSPKLLIYKVSSRFSGVPDRFSGSGSGTDFTLKIRRVEADDLGVYYCFQGSHIPWTFGGGTNLEIK |

The remaining lines, values behind:

| Binder | fluorescence intensity ratio (test antibody + secondary / secondary only) [1] [fold] | binding result [2] |
| --- | --- | --- |
| KM5908 antibody (antibody, mouse IgG2a, V domains shown, mouse IgG2a from hybridoma) VH: QVQLKQSGPGLVQPSQSLSITCTVSGFSLNNYGVHWVRQPPGKGLEWLGVIWSAGTTVYNAAFISRLSISKDDSKSQVFFKMNSLQAGDTAIYYCAKDGSRYYTAMDYWGQGTSVTVSS VL: DVVMTQTPRSLPVSLGDQASISCRSRQSLIHSNGITFLHWYLQKAGQSPKLLIYKVSNRFSGVPDRFSGSGSGTDFTLRISRVEAEDLGVYFCSQGTHVPPTFGGGTKLEIK | < 10 | – |
| chKM5908′ mut26 (antibody, V domains shown) VH: QVQLKQSGPGLVQPSQSLSITCTVSGFSLNNYGVHWVRQPPGKGLEWLGVIWSAGTTVYNAAAISRLSISKDDSKSQVFFKMNSLQAGDTAIYYCAKDGSRYYTAMDYWGQGTSVTVSS VL: DVVMTQTPLSLPVSLGDQASIFCRSSQSLVHRNGITFFHWYLQKPGQSPKLLIYKVSNKFSGVPDRFSGSGSGTDFTLKISRVAPDDLGVYFCSQGTHVPPTFGGGTKLEIK | – | binds |
| chKM5908′ mut28 (antibody, V domains shown) VH: QVQLKQSGPGLVQPSQSLSITCTVSGFSLNNYGVHWVRQPPGKGLEWLGVTWSAGTTVYNAAFASRLSISKDDSKSQVFFKMNSLQAGDTAIYYCAKDGSRAYAAMDYWGQGTSVTVSS VL: DVVMTQTPLSLPVSLGDQASIFCRSSQSLVHRNGITFFHWYLQKPGQSPKLLIYKVSNKFSGVPDRFSGSGSGTDFTLKISRVAPDDLGVYFCSQGTHVPPTFGGGTKLEIK | – | binds |
| chKM5908′ mut29 (antibody, V domains shown) VH: QVQLKQSGPGLVQPSQSLSITCTVSGFSLNNYGVHWVRQPPGKGLEWLGVTWSAGTTVYNAAFISRLSISKDDSKSQVFFKMNSLQAGDTAIYYCAKDGSRYYTAMDYWGQGTSVTVSS VL: DVVMTQTPLSLPVSLGDQASIFCRSSQSLVHRNGITFAHWYLQKPGQSPKLLIYKISNRFSGVPDRFSGSGSGTDFTLKISRVAPDDLGVYFCSQGTHVPPTFGGGTKLEIK | – | binds |
| KM5911 antibody (antibody, mouse IgG2b, V domains shown, mouse IgG2b from hybridoma) VH: DVKLVESGEGLVKPGGSLKLSCAASGFTFSRNAMSWVRQTPEKRMEWVAYISSGGDYIYYADTVKGRFTVSRDNARNTLYLRMSSLKSEDTAMYYCTRFSYGYAKNALDYWGQGTSVTVSS VL: DIQMTQSPSSLSASLGGKVTITCKASQDIKKYIAWYQHKPGKGPRLLIHYTSSLQPGIPSRFSGSGSGRDYSFSISNLEPEDIATYYCLQYDYLMTFGGGTKLEIK | < 10 | – |
| KM5954 antibody (antibody, mouse IgG2a, V domains shown, mouse IgG2a from hybridoma) VH: QVQLKESGPGLVAPSQSLSITCTVSGFSLPRYTITWVRQPPGKGLEWLGLIRTGGGTIYNSALKSRLSISKDNSKSQVFLKMNSLQSGDTARYYCARNGAYYSKSGSYWYFDVWGTGTTVTVSS VL: QIVLTQSPAIMSVSLGEEITLTCSASSSVSYMHWYQQKSGTSPKLLIYSTSNLASGVPSRFSGSGSGTFYSLTISSVEAEDAADYYCHQWSSHPCTFGGGTKLEIK | < 10 | – |
| KM5909 antibody (antibody, mouse IgG1, V domains shown, mouse IgG1 from hybridoma) VH: EVQLVESGGDLVKPGGSLKLSCAASGFTLSNYGMSWVRQTPDKRLEWVASISIGNYIYYLDSVKGRFTIYRDNAKNTLFLQMRSLKSEDTAMYHCARQGNDYDWFTYWGQGTLVTVSA VL: DVLMTQTPLSLPVSLGDQASISCRSSQSVVHTNGNTYLEWYLQKPGQSPKLLIYKVSNRFSGVPDRFSGSGSGTDFTLKINRVEAEDLGVYYCFQGSHLPWTFGGGTKLEIK | < 10 | – |
| KM5915 antibody (antibody, mouse IgG2b, V domains shown, mouse IgG2b from hybridoma) VH: EVQLVESGGDLVKPGGSLKLSCAASGFTFSNYGMSWVRQTPDKRLEWVASISIGSYIYYLDSVKGRFTIYRDNAKNTLFLQMRSLKSEDTAMYHCARQGNDYDWFAYWGQGTLVTVSA VL: DVLMTQTPLSLPVSLGDQASISCRSSQNIVHTNGNTYLEWYLQKPGQSPKLLIYKVSNRFSGVPDRFSGSGSGTDFTLKISRVEAEDLGVYYCFQGSHLPWTFGGGTKLEIK | < 10 | – |
